{
  "source": "patent US20110129457A1",
  "about": "(CURIS, published 2011)",
  "binders": {"B1": {"name": "Hhip1β12 (β-propeller-EGF1-EGF2, residues 193-667), C-terminal His6-tag (receptor)", "chain": "SNYLDQMEEYDKVEEISRKHKHNCFCIQEVVSGLRQPVGALHSGDGSQRLFILEKEGYVKILTPEGEIFKEPYLDIHKLVQSGIKGGDERGLLSLAFHPNYKKNGKLYVSYTTNQERWAIGPHDHILRVVEYTVSRKNPHQVDLRTARVFLEVAELHRKHLGGQLLFGPDGFLYIILGDGMITLDDMEEMDGLSDFTGSVLRLDVDTDMCNVPYSIPRSNPHFNSTNQPPEVFAHGLHDPGRCAVDRHPTDININLTILCSDSNGKNRSSARILQIIKGKDYESEPSLLEFKPFSNGPLVGGFVYRGCQSERLYGSYVFGDRNGNFLTLQQSPVTKQWQEKPLCLGTSGSCRGYFSGHILGFGEDELGEVYILSSSKSMTQTHNGKLYKIVDPKRPLMPEECRATVQPAQTLTSECSRLCRNGYCTPTGKCCCSPGWEGDFCRTAKCEPACRHGGVCVRPNKCLCKKGYLGPQCEHHHHHH"}, "B2": {"name": "Hhip1β12 D383A (receptor)", "chain": "B1 chain with D191A"}, "B3": {"name": "Hhip1β12 D383R (receptor)", "chain": "B1 chain with D191R"}, "B4": {"name": "Human Dhh (residues 24-198), N-terminal His6-tag (ligand)", "chain": "not shown", "notes": "range 24-198; also called Desert Hedgehog"}, "B5": {"name": "Hhip1β1 (β-propeller-EGF1, residues 193-637), C-terminal His6-tag (receptor)", "chain": "SNYLDQMEEYDKVEEISRKHKHNCFCIQEVVSGLRQPVGALHSGDGSQRLFILEKEGYVKILTPEGEIFKEPYLDIHKLVQSGIKGGDERGLLSLAFHPNYKKNGKLYVSYTTNQERWAIGPHDHILRVVEYTVSRKNPHQVDLRTARVFLEVAELHRKHLGGQLLFGPDGFLYIILGDGMITLDDMEEMDGLSDFTGSVLRLDVDTDMCNVPYSIPRSNPHFNSTNQPPEVFAHGLHDPGRCAVDRHPTDININLTILCSDSNGKNRSSARILQIIKGKDYESEPSLLEFKPFSNGPLVGGFVYRGCQSERLYGSYVFGDRNGNFLTLQQSPVTKQWQEKPLCLGTSGSCRGYFSGHILGFGEDELGEVYILSSSKSMTQTHNGKLYKIVDPKRPLMPEECRATVQPAQTLTSECSRLCRNGYCTPTGKCCCSPGWEGDFCRTAHHHHHH"}, "B6": {"name": "Human Ihh (residues 29-202), N-terminal His6-tag (ligand)", "chain": "not shown", "notes": "range 29-202; also called His6-Ihh; Indian Hedgehog"}, "B7": {"name": "octyl-Ihh (octylated Ihh wildtype) (ligand)", "chain": "not shown", "modifications": "octylated (site not stated)"}, "B8": {"name": "Ihh T154I (type A1 brachydactyly mutant) (ligand)", "chain": "not shown"}, "B9": {"name": "octyl-T154I (octylated Ihh T154I) (ligand)", "chain": "not shown", "modifications": "octylated (site not stated)"}, "B10": {"name": "Hip-L2 peptide (GDGMITLDDMEEMDGLSDFTG) of the competition ELISA (peptide)", "peptide": "GDGMITLDDMEEMDGLSDFTG", "notes": "also called Hhip1-L2 peptide; peptide derived from the Hhip1β12 L2 loop"}},
  "key": {"[1]": {"target": "fully lipid-modified Shh secreted by human HT29 cells (human, UniProt Q15465 24-197, N-terminal palmitoyl and C-terminal cholesterol modifications)", "experiment": "cell-based or functional assay"}, "[2]": {"target": "B1", "experiment": "competition ELISA: unlabeled Hh against 5 nM biotinylated-ShhN-Cys for immobilized Hhip1β12"}, "[3]": {"target": "B1", "experiment": "competition ELISA as in paragraph 570; the legend gives Ihh and Shh the other way round"}, "[4]": {"target": "T1, full length human Patched-1 on 293 cells (Ptch1-293 clone 10) (human, UniProt Q13635 1-1447)", "T1 construct": "whole, on cells; also called Ptch1 expressing cells; Ptch1-293 cells", "T1 sequence (looked up)": "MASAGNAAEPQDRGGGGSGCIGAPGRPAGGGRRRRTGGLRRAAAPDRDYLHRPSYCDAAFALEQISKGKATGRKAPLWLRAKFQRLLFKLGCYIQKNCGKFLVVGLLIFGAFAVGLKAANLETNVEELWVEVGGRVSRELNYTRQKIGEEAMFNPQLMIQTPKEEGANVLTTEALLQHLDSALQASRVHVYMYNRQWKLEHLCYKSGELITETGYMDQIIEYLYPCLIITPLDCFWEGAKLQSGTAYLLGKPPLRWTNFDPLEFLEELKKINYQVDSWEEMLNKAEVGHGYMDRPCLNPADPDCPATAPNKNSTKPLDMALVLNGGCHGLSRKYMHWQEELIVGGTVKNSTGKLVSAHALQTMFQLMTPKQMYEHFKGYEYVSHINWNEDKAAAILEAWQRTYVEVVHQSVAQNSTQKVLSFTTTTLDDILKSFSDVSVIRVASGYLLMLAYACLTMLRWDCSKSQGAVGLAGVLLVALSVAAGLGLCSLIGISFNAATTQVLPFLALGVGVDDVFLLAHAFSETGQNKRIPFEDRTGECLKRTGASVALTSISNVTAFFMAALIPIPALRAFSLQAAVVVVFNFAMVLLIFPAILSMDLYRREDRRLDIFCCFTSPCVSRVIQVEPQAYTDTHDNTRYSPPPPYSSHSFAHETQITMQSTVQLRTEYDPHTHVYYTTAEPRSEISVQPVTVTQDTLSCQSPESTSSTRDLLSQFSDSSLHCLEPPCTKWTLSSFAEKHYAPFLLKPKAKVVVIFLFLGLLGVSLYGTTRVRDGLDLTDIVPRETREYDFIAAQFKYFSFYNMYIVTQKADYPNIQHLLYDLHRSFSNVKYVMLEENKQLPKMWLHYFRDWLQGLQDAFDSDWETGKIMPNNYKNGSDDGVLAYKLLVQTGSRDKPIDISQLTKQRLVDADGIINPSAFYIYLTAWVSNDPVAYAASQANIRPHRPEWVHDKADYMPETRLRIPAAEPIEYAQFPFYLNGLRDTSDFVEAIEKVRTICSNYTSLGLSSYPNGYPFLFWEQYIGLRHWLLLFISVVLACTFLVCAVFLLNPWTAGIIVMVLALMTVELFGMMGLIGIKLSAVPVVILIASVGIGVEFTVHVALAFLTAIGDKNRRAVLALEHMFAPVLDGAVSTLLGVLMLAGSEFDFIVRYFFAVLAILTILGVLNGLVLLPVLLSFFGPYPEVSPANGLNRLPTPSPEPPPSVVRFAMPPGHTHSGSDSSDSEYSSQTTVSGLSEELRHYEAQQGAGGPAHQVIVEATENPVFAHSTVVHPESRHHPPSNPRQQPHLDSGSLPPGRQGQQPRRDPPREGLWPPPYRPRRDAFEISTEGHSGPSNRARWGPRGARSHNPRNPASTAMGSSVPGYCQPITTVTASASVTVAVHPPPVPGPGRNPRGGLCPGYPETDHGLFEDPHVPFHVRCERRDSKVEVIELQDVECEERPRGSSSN", "experiment": "FACS competition: unlabeled Ihh against 1 nM Shh649 for Ptch1-expressing 293 cells"}, "[5]": {"target": "B1", "experiment": "competition ELISA: unlabeled Ihh against 5 nM biotinylated ShhN-Cys for immobilized Hhip1β12"}, "[6]": {"target": "T1, full length human Patched-1 on 293 …", "experiment": "FACS competition: 1 nM Shh649 with inhibitor on Ptch1 expressing cells"}, "[7]": {"target": "T2, Shh-Flag (human Shh residues 25-197 with C-terminal Flag-Tag) (human, UniProt Q15465 25-197)", "T2 construct": "range 25-197; not shown: C-terminal Flag-Tag", "experiment": "competition ELISA: Hip-L2 peptide dilution with 800 nM Hhip protein on Shh-Flag captured by anti-Flag M2, anti-His-HRP detection"}},
  "note": "Numbering of substitutions follows the chain as printed. Names and notes keep the numbering of the source.",
  "data": [
    {"binder": "B1", "values": [
      {"measurement": "IC50, inhibition of Gli-luciferase activity in HT29/S12 co-culture", "setting": "[1]", "value": 5, "unit": "nM"}
    ]},
    {"binder": "B2", "values": [
      {"measurement": "IC50, Gli-luciferase co-culture assay", "setting": "[1]", "value": "~10", "unit": "nM"},
      {"measurement": "fold of IC50 against wildtype Hipβ12, Gli-luciferase co-culture assay", "setting": "[1]", "value": 2, "unit": "fold"}
    ]},
    {"binder": "B3", "values": [
      {"measurement": "IC50, Gli-luciferase co-culture assay", "setting": "[1]", "value": 57, "unit": "nM"},
      {"measurement": "fold change of IC50, Gli-luciferase co-culture assay", "setting": "[1]", "value": "~13", "unit": "fold"}
    ]},
    {"binder": "B4", "values": [
      {"measurement": "IC50", "setting": "[2]", "value": 40, "unit": "nM"}
    ]},
    {"binder": "B5", "values": [
      {"measurement": "IC50, inhibition of Gli-luciferase activity in HT29/S12 co-culture", "setting": "[1]", "value": 20.3, "unit": "nM"},
      {"measurement": "fold of IC50 against Hhip1ECD, Gli-luciferase co-culture", "setting": "[1]", "value": "~4", "unit": "fold"}
    ]},
    {"binder": "B6", "values": [
      {"measurement": "IC50", "setting": "[3]", "value": 53, "unit": "nM"},
      {"measurement": "IC50 (read off the curve)", "setting": "[4]", "value": "~3", "unit": "nM"},
      {"measurement": "IC50 (read off the curve)", "setting": "[5]", "value": "~90", "unit": "nM"},
      {"measurement": "IC50", "setting": "[2]", "value": 87, "unit": "nM"},
      {"measurement": "IC50", "setting": "[6]", "value": 1.1, "unit": "nM"}
    ]},
    {"binder": "B7", "values": [
      {"measurement": "IC50", "setting": "[6]", "value": 0.64, "unit": "nM"}
    ]},
    {"binder": "B8", "values": [
      {"measurement": "IC50", "setting": "[6]", "value": 140, "unit": "nM"}
    ]},
    {"binder": "B9", "values": [
      {"measurement": "IC50", "setting": "[6]", "value": 10, "unit": "nM"}
    ]},
    {"binder": "B10", "values": [
      {"measurement": "IC50", "setting": "[7]", "value": 150, "unit": "µM"}
    ]}
  ]
}
